Laboratory results published in patent publication US20090324602A1 (Biogen, published 2009).
Where a chain is given by its changes, count along the chain named. In names and notes the source's numbering stands. Several values for one entry are separate records, joined by “and”; a condition that tells them apart may be missing. Equal entries are not always repeated. Where two headings read alike, the source gives them in different places.

Assays:
[1] = target: T1, human Fn14 R56K, expressed on the cell surface (human, UniProt Q9NP84 28-129); experiment: FACS direct binding, cells expressing the huFn14 construct, MFI
T1 construct: also called pYL397

[2] = target: T2, human Fn14 M50A, expressed on the cell surface (human, UniProt Q9NP84 28-129); experiment: as above
T2 construct: also called pYL396

[3] = target: T3, rat Fn14, full-length, expressed on the cell surface (rat, UniProt Q9CR75 28-129 (mouse entry)); experiment: direct binding FACS
T3 construct: also called pEAG2275

[4] = target: T4, mouse Fn14, full-length, expressed on the cell surface (mouse, UniProt Q9CR75 28-129); experiment: FACS direct binding titration on murine surface Fn14 (target per legend paragraph 91), MFI
T4 construct: also called murine Fn14; mu Fn14

[5] = target: T4, mouse Fn14, full-length, expressed on …; experiment: FACS titration on cells expressing surface Fn14, MFI against ng/ml anti-Fn14 mab
[6] = target: T5, human Fn14 L65Q, expressed on the cell surface (human, UniProt Q9NP84 28-129); experiment: FACS direct binding, cells expressing the huFn14 construct, MFI
T5 construct: also called pYL393

[7] = target: T6, human Fn14 H60K, expressed on the cell surface (human, UniProt Q9NP84 28-129); experiment: as above
T6 construct: also called pYL399

[8] = target: T7, human Fn14 W42A, expressed on the cell surface (human, UniProt Q9NP84 28-129); experiment: as above
T7 construct: also called huFn14 W42A; pEAG2251

[9] = target: T2, human Fn14 M50A, expressed on the cell …; experiment: as above; remark: listed apart in the source
[10] = target: T8, human Fn14 S40R, expressed on the cell surface (human, UniProt Q9NP84 28-129); experiment: as above
T8 construct: also called pYL392

[11] = target: T9, human Fn14 T33Q, expressed on the cell surface (human, UniProt Q9NP84 28-129); experiment: as above
T9 construct: also called pYL391

[12] = target: T10, human Fn14 R56P, expressed on the cell surface (human, UniProt Q9NP84 28-129); experiment: as above
T10 construct: also called pYL398

[13] = target: T11, cynomolgus monkey Fn14, full-length, expressed on the cell surface (cynomolgus monkey, UniProt Q9NP84 28-129 (human entry)); experiment: FACS direct binding titration on surface Fn14, MFI
T11 construct: also called cyno Fn14; pEAG2120

[14] = target: T12, soluble monomeric human Fn14 protein (ectodomain with myc and His tags) (human); experiment: SPR (Biacore), antibody amine-coupled on CM5, soluble monomeric human Fn14 0.3-30 nM as analyte, KD = kd/ka
T12 construct: also called soluble Fn14 protein; soluble human Fn14

[15] = target: T13, human Fn14, full-length, expressed on the cell surface (human, UniProt Q9NP84 28-129); experiment: FACS direct binding titration on surface human Fn14; value is C (midpoint) of the printed 4-P fit y=(A-D)/(1+(x/C)^B)+D, x in ng/ml
T13 construct: Also used for Fn14 on tumour cell lines (WiDr, A375) and in tissue sections; also called huFn14; hu Fn14

[16] = target: T3, rat Fn14, full-length, expressed on the …; experiment: FACS direct binding titration on surface rat Fn14; value is C (midpoint) of the printed 4-P fit y=(A-D)/(1+(x/C)^B)+D, x in ng/ml
[17] = target: T12, soluble monomeric human Fn14 protein …; experiment: SPR (Biacore), antibody amine-coupled on CM5, soluble monomeric human Fn14 0.3-30 nM as analyte, 1:1 fit
[18] = target: T14, huFn14-huFc fusion protein (human, UniProt Q9NP84 28-80); experiment: competition ELISA on coated huFn14-huFc against a constant amount of biotinylated murine P4A8, OD450; value is C (midpoint) of the printed 4-P fit, x in ng/ml
T14 construct: also called hFn14-hFc; bivalent Fn14-Fc; not shown: human Fc

[19] = target: T13, human Fn14, full-length, expressed on …; experiment: FACS dilution titration on 293E cells transiently overexpressing human Fn14; value is C (midpoint) of the printed 4-P fit y=(A-D)/(1+(x/C)^B)+D, x in ug/ml
mouse Fn14-mouse Fc = target: T15, mouse Fn14-mouse Fc (mouse, UniProt Q9CR75 28-80); experiment: direct binding ELISA, mouse Fn14-mouse Fc coated at 2 µg/ml, HRP-goat anti-human IgG
T15 construct: not shown: mouse Fc

[20] = target: T13, human Fn14, full-length, expressed on …; experiment: FACS on WiDr cells

B1: monoclonal antibody 1.P4A8.3C7 (P4A8), murine (antibody, V domains shown)
VH: QVQLQQSGPEVVRPGVSVKISCKGSGYTFTDYGMHWVKQSHAKSLEWIGVISTYNGYTNYNQKFKGKATMTVDKSSSTAYMELARLTSEDSAIYYCARAYYGNLYYAMDYWGQGTSVTVSS
VL: DIVLTQSPASLAVSLGQRATISCRASKSVSTSSYSYMHWYQQKPGQPPKLLIKYASNLESGVPARFSGSGSGTDFILNIHPVEEEDAATYYCQHSRELPFTFGSGTKLEIK
notes: Mouse hybridoma mAb (ATCC PTA-9947); also called muP4A8; murine P4A8 mAb
B1: binds [1]; binds [2].

B2: monoclonal antibody P3D8, murine (antibody, V domains shown)
VH: not shown
VL: B1 VL with A55T, F100W, S104G
With B2 the binding result [3] was “binds” and the EC50 [4] was 0.00238 µg/mL.

B3: monoclonal antibody 1.P2D3.3D5 (P2D3), murine (antibody, V domains shown)
VH: not shown
VL: B1 VL with A55T, F100W, S104G
notes: Mouse hybridoma mAb (ATCC PTA-9948)
In the case of B3, the EC50 [5] is reported as 0.00478 µg/mL, the binding result [3] is reported as “binds” and the EC50 [4] is reported as 0.00226 µg/mL.

B4: monoclonal antibody 1.P3G5.1E4 (P3G5), murine (antibody, V domains shown)
VH: B1 VH with M34I
VL: B1 VL with S26N
notes: Mouse hybridoma mAb (ATCC PTA-9949)
B4: binds [6]; binds [7]; binds [8]. B4: binds [9]; binds [10]; binds [11]. For the same binder, the binding result [12] was “binds”, the binding result [3] was “binds” and the EC50 [13] was 0.00119 µg/mL. It also gave an EC50 [4] of 0.00201 µg/mL.

B5: humanized P4A8 (H1/L1) aglycosylated S228P/T299A huIgG4, kappa (antibody)
heavy: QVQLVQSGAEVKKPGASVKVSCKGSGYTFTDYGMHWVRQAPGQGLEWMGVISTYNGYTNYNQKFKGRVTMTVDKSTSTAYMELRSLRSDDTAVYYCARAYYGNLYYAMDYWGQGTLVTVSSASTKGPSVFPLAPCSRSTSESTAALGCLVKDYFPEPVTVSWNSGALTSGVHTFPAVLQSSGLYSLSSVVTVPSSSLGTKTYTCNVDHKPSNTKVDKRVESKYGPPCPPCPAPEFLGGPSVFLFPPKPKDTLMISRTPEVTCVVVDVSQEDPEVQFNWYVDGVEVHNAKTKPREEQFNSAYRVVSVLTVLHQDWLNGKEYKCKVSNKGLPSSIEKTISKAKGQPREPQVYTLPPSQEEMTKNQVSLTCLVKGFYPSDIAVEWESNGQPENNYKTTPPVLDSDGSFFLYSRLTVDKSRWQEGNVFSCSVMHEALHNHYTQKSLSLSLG
light: DIVLTQSPASLAVSLGQRATISCRASKSVSTSSYSYMHWYQQKPGQPPKLLIKYASNLESGVPARFSGSGSGTDFSLNIHPMEEDDTAMYFCQHSRELPFTFGGGTKLEIKRTVAAPSVFIFPPSDEQLKSGTASVVCLLNNFYPREAKVQWKVDNALQSGNSQESVTEQDSKDSTYSLSSTLTLSKADYEKHKVYACEVTHQGLSSPVTKSFNRGEC
notes: also called huP4A8-aglyG4P; hP4A8.IgG4Pagly
With B5 the Kd [14] was 3.4 nM and 2.2 nM, the EC50 [15] was 0.0916 µg/mL and the EC50 [16] was 0.0721 µg/mL. For the same binder, the koff [17] was 0.0029 s⁻¹ and 0.0047 s⁻¹ and the kon [17] was 2e+06 M⁻¹ s⁻¹ and 2.9e+06 M⁻¹ s⁻¹.

B6: humanized P4A8 (H1/L2) huIgG1, kappa (antibody, V domains shown)
VH: QVQLVQSGAEVKKPGASVKVSCKGSGYTFTDYGMHWVRQAPGQGLEWMGVISTYNGYTNYNQKFKGRVTMTVDKSTSTAYMELRSLRSDDTAVYYCARAYYGNLYYAMDYWGQGTLVTVSS
VL: DIVLTQSPASLAVSLGQRATISCRASKSVSTSSYSYMHWYQQKPGQPPKLLIKYASNLESGVPARFSGSGSGTDFILNIHPMEEDDTAMYFCQHSRELPFTFGGGTKLEIKR
notes: One of the 'six versions of huP4A8' (two heavy chains by three light chains) expressed transiently in 293E cells; also called version of huP4A8 H1/L2
B6 showed an IC50 [18] of 0.0408 µg/mL and an EC50 [19] of 0.178 µg/mL.

B7: humanized P4A8 (H2/L3) huIgG1, kappa (antibody, V domains shown)
VH: B6 VH with M48I, V68A
VL: B6 VL with M89T, F91Y
notes: One of the 'six versions of huP4A8'; also called version of huP4A8 H2/L3
B7 showed an IC50 [18] of 0.0357 µg/mL and an EC50 [19] of 0.175 µg/mL.

B8: humanized P4A8 (H2/L1) huIgG1, kappa (antibody, V domains shown)
VH: B6 VH with M48I, V68A
VL: B6 VL with I76S
notes: One of the 'six versions of huP4A8'; also called version of huP4A8 H2/L1
In the case of B8, the IC50 [18] is reported as 0.0275 µg/mL and the EC50 [19] is reported as 0.175 µg/mL.

B9: humanized P4A8 (H1/L3) huIgG1, kappa (antibody, V domains shown)
VH: B6 VH
VL: B6 VL with M89T, F91Y
notes: One of the 'six versions of huP4A8'; also called version of huP4A8 H1/L3
For B9, the IC50 [18] was 0.0316 µg/mL and the EC50 [19] was 0.172 µg/mL.

B10: humanized P4A8 (H1/L1) huIgG1, kappa (antibody)
heavy: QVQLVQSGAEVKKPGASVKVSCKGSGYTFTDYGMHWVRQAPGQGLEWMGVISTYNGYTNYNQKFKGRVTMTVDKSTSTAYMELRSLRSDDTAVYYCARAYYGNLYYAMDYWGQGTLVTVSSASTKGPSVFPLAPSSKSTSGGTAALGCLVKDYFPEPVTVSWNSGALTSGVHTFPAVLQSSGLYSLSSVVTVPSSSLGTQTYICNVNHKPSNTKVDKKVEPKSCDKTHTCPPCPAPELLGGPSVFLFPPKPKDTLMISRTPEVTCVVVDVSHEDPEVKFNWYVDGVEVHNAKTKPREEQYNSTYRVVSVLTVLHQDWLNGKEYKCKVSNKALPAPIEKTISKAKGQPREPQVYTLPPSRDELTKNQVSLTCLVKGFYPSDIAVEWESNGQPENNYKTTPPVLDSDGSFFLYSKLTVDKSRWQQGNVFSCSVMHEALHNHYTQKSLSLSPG
light: B5 light
notes: H1 heavy chain (pYL310) with L1 kappa light chain (pYL321); also called huP4A8; hP4A8.IgG1
For B10, the IC50 [18] was 0.0352 µg/mL, the EC50 [19] was 0.25 µg/mL and the EC50 (mouse Fn14-mouse Fc) was ~0.00679 µg/mL. For the same binder, the Kd [14] was 2.6 nM and 1.7 nM, the EC50 [15] was 0.0766 µg/mL and the EC50 [16] was 0.0586 µg/mL. The koff [17] was 0.0029 s⁻¹ and 0.003 s⁻¹, the kon [17] was 1.7e+06 M⁻¹ s⁻¹ and 1.8e+06 M⁻¹ s⁻¹ and the EC50 [20] was 0.12 nM.

B11: humanized P4A8 (H2/L2) huIgG1, kappa (antibody, V domains shown)
VH: B6 VH with M48I, V68A
VL: B6 VL
notes: One of the 'six versions of huP4A8'; also called version of huP4A8 H2/L2
Work on B11 yielded an IC50 [18] of 0.0326 µg/mL and an EC50 [19] of 0.179 µg/mL.
